Measured values from IntAct's records for PubMed 21785410.

B1: NAP1-binding protein (Saccharomyces cerevisiae), P52919 (parent)
chain: MLKSVQGLWKDFFGIRDDGRKREYGSLDEVRKRSALRSRRKQMRPTGKSVLKRPRKVTDRKTEEKIRTNRRKTPKRRLTKIFQTIRDVFSNDNENMSKMQNVCGDMTRILKKRSQGRPSYMDTDTAKSRILRSDAFKRKISELKYNKQRISELRSGSSDGSSGKDRNQSLYLDREILLQRQIKKRDEKIKALESKLQSLQEALNYSNEKYRILEDLLDSSNIHPSYTKSRRTMSNLARENDEIKPLKIDLSPSPIRRTNSLFTSSPMKTYNRDGNIPEMQPLQENISPACPTPPYRSRETEKEDETLSPISVDFSSYLS

Variants of: B1
Conditions: with nic96_yeast NIC96, P34077
Sequence of nic96_yeast NIC96, P34077 (P34077 whole entry): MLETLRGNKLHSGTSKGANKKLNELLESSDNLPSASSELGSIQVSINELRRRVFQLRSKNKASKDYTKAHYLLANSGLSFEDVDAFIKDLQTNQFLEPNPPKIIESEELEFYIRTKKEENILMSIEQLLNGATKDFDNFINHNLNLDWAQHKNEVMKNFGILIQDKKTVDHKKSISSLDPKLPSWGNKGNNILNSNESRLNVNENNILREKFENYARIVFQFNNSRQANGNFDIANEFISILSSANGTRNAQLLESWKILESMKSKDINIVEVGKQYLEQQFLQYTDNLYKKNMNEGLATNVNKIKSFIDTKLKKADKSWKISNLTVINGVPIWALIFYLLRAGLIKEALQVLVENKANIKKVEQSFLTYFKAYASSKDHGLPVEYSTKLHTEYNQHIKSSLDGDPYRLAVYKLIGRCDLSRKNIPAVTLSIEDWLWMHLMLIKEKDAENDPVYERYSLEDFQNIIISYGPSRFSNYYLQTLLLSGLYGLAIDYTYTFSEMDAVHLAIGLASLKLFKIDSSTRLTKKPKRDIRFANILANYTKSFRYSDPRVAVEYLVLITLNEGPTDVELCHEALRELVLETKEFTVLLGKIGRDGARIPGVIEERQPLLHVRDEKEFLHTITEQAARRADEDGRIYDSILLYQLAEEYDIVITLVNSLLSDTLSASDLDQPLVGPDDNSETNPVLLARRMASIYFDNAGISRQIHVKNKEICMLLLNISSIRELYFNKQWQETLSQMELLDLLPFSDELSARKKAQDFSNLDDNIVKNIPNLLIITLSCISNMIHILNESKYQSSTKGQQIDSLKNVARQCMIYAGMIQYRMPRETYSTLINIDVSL

Effect of a mutation on the interaction, disrupting interaction:
MAKSVQGLWKDFFGIRDDGRKREYGSLDEVRKRSALRSRRKQMRPTGKSVLKRPRKVTDRKTEEKIRTNRRKTPKRRLTKIFQTIRDVFSNDNENMSKMQNVCGDMTRILKKRSQGRPSYMDTDTAKSRILRSDAFKRKISELKYNKQRISELRSGSSDGSSGKDRNQSLYLDREILLQRQIKKRDEKIKALESKLQSLQEALNYSNEKYRILEDLLDSSNIHPSYTKSRRTMSNLARENDEIKPLKIDLSPSPIRRTNSLFTSSPMKTYNRDGNIPEMQPLQENISPACPTPPYRSRETEKEDETLSPISVDFSSYLS [L2A]
MLKSAQGLWKDFFGIRDDGRKREYGSLDEVRKRSALRSRRKQMRPTGKSVLKRPRKVTDRKTEEKIRTNRRKTPKRRLTKIFQTIRDVFSNDNENMSKMQNVCGDMTRILKKRSQGRPSYMDTDTAKSRILRSDAFKRKISELKYNKQRISELRSGSSDGSSGKDRNQSLYLDREILLQRQIKKRDEKIKALESKLQSLQEALNYSNEKYRILEDLLDSSNIHPSYTKSRRTMSNLARENDEIKPLKIDLSPSPIRRTNSLFTSSPMKTYNRDGNIPEMQPLQENISPACPTPPYRSRETEKEDETLSPISVDFSSYLS [V5A]
MLKSVQGLAKDFFGIRDDGRKREYGSLDEVRKRSALRSRRKQMRPTGKSVLKRPRKVTDRKTEEKIRTNRRKTPKRRLTKIFQTIRDVFSNDNENMSKMQNVCGDMTRILKKRSQGRPSYMDTDTAKSRILRSDAFKRKISELKYNKQRISELRSGSSDGSSGKDRNQSLYLDREILLQRQIKKRDEKIKALESKLQSLQEALNYSNEKYRILEDLLDSSNIHPSYTKSRRTMSNLARENDEIKPLKIDLSPSPIRRTNSLFTSSPMKTYNRDGNIPEMQPLQENISPACPTPPYRSRETEKEDETLSPISVDFSSYLS [W9A]
MLKSVQGLWKDAFGIRDDGRKREYGSLDEVRKRSALRSRRKQMRPTGKSVLKRPRKVTDRKTEEKIRTNRRKTPKRRLTKIFQTIRDVFSNDNENMSKMQNVCGDMTRILKKRSQGRPSYMDTDTAKSRILRSDAFKRKISELKYNKQRISELRSGSSDGSSGKDRNQSLYLDREILLQRQIKKRDEKIKALESKLQSLQEALNYSNEKYRILEDLLDSSNIHPSYTKSRRTMSNLARENDEIKPLKIDLSPSPIRRTNSLFTSSPMKTYNRDGNIPEMQPLQENISPACPTPPYRSRETEKEDETLSPISVDFSSYLS [F12A]
MLKSVQGLWKDFAGIRDDGRKREYGSLDEVRKRSALRSRRKQMRPTGKSVLKRPRKVTDRKTEEKIRTNRRKTPKRRLTKIFQTIRDVFSNDNENMSKMQNVCGDMTRILKKRSQGRPSYMDTDTAKSRILRSDAFKRKISELKYNKQRISELRSGSSDGSSGKDRNQSLYLDREILLQRQIKKRDEKIKALESKLQSLQEALNYSNEKYRILEDLLDSSNIHPSYTKSRRTMSNLARENDEIKPLKIDLSPSPIRRTNSLFTSSPMKTYNRDGNIPEMQPLQENISPACPTPPYRSRETEKEDETLSPISVDFSSYLS [F13A]
